Test results reported in IntAct's records for PubMed 11847120.

B1: POU domain, class 2, transcription factor 1 (Homo sapiens), P14859-1 (parent)
chain: MNNPSETSKPSMESGDGNTGTQTNGLDFQKQPVPVGGAISTAQAQAFLGHLHQVQLAGTSLQAAAQSLNVQSKSNEESGDSQQPSQPSQQPSVQAAIPQTQLMLAGGQITGLTLTPAQQQLLLQQAQAQAQLLAAAVQQHSASQQHSAAGATISASAATPMTQIPLSQPIQIAQDLQQLQQLQQQNLNLQQFVLVHPTTNLQPAQFIISQTPQGQQGLLQAQNLLTQLPQQSQANLLQSQPSITLTSQPATPTRTIAATPIQTLPQSQSTPKRIDTPSLEEPSDLEELEQFAKTFKQRRIKLGFTQGDVGLAMGKLYGNDFSQTTISRFEALNLSFKNMCKLKPLLEKWLNDAENLSSDSSLSSPSALNSPGIEGLSRRRKKRTSIETNIRVALEKSFLENQKPTSEEITMIADQLNMEKEVIRVWFCNRRQKEKRINPPSSGGTSSSPIKAIFPSPTSLVATTPSLVTSSAATTLTVSPVLPLTSAAVTNLSVTGTSDTTSNNTATVISTAPPASSAVTSPSLSPSPSASASTSEASSASETSTTQTTSTPLSSPLGTSQVMVTASGLQTAAAAALQGAAQLPANASLAAMAAAAGLNPSLMAPSQFAAGGALLSLNPGTLSGALSPALMSNSTLATIQALASGGSLPITSLDATGNLVFANAGGAPNIVTAPLFLNPQNLSLLTSNPVSLVSAAAASAGNSAPVASLHATSTSAESIQNSLFTVASASGAASTTTTASKAQ
partner: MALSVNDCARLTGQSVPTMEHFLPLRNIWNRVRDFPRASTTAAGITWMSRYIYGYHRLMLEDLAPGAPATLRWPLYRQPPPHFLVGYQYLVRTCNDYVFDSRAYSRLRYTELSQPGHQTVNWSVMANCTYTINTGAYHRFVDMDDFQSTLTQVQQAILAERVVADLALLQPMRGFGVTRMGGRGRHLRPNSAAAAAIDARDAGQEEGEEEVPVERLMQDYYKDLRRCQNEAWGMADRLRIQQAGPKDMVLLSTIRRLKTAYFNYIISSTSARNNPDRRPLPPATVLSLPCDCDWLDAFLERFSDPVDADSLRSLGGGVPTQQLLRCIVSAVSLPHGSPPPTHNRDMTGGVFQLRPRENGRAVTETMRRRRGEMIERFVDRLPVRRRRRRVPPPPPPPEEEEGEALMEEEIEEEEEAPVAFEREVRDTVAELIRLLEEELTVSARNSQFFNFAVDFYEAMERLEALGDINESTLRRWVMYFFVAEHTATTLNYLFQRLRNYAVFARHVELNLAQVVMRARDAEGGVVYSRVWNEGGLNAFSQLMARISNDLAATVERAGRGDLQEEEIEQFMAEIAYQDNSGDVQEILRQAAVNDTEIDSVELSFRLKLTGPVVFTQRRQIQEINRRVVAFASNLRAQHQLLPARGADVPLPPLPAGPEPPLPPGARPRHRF

Variants of: B1
Details: with term_ade05 PTP

With K403M as the variant, how does the “effect of a mutation on the interaction” value read?
The value was “disrupting interaction strength”.

With K403E as the variant, how does the “effect of a mutation on the interaction” value read?
Its value is “decreasing interaction strength”.

How did the “effect of a mutation on the interaction” value turn out when K382E;L394S was run?
Its value is “decreasing interaction strength”.

Which “effect of a mutation on the interaction” value does the source give for K382T here?
Its value is “decreasing interaction strength”.

With R380W as the variant, how does the “effect of a mutation on the interaction” value read?
Its value is “disrupting interaction strength”.

Which “effect of a mutation on the interaction” value does the source give for R431S here?
The value was “decreasing interaction strength”.

R383S was tested. Which “effect of a mutation on the interaction” value did it give?
The value was “decreasing interaction strength”.

How did the “effect of a mutation on the interaction” value turn out when E408G was run?
Its value is “decreasing interaction strength”.

For E400G;M418L, which “effect of a mutation on the interaction” value is on record?
Its value is “decreasing interaction strength”.

Which “effect of a mutation on the interaction” value does the source give for V425G here?
Its value is “disrupting interaction strength”.

E419G;K433E was tested. Which “effect of a mutation on the interaction” value did it give?
The value was “decreasing interaction strength”.

With S377G;K420E as the variant, how does the “effect of a mutation on the interaction” value read?
The value was “disrupting interaction strength”.

Q415L;C428S was tested. Which “effect of a mutation on the interaction” value did it give?
The value was “decreasing interaction strength”.

Which “effect of a mutation on the interaction” value does the source give for N429D here?
The value was “disrupting interaction strength”.

Which “effect of a mutation on the interaction” value does the source give for K403Q;R424S here?
Its value is “decreasing interaction strength”.

For I373T;V425A, which “effect of a mutation on the interaction” value is on record?
The value was “decreasing interaction strength”.

How did the “effect of a mutation on the interaction” value turn out when C428Y was run?
The value was “disrupting interaction strength”.

Which “effect of a mutation on the interaction” value does the source give for T384P here?
The value was “disrupting interaction strength”.

How did the “effect of a mutation on the interaction” value turn out when T384S was run?
The value was “decreasing interaction strength”.

Which “effect of a mutation on the interaction” value does the source give for I412F;V425D here?
The value was “decreasing interaction strength”.

D414G;V425G was tested. Which “effect of a mutation on the interaction” value did it give?
The value was “disrupting interaction strength”.

T410S was tested. Which “effect of a mutation on the interaction” value did it give?
Its value is “decreasing interaction strength”.

For F427Y, which “effect of a mutation on the interaction” value is on record?
The value was “disrupting interaction strength”.
